# Target: OsBOR3_(∆1–642) (Oryza sativa)
# Test: cryo-EM structure; OsBOR3 (1 mg/mL) in 20 mM Tris (pH 7.5), 150 mM NaCl, 0.75x CMC LMNG on Quantifoil grids; 116,140 particles; 3D refinement with C2 symmetry imposed; 5-6 Å
substance,measurement,value
OsBOR3_(∆1–642) (domain or fragment),stoichiometry N,2
